The supplement of paper PMC9112550, “Optimization of the antimicrobial peptide Bac7 by deep mutational scanning” (BMC Biology, 2022)
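Note: peptides expressed intracellularly from a pBAD plasmid library in pooled LB shake-flask culture, induced with 0.3% L-arabinose, DNA abundance read by NGS, three biological replicates, DESeq2 with apeglm shrinkage.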

These sequences were tested on Escherichia coli TOP10 (assay: shrunken log2 fold change of peptide-encoding DNA abundance (4.5 h post-induction vs induction); higher = less antimicrobial activity (less host growth inhibition)). Settings: time post-induction: 4.5 h; library: site-saturation at positions 5, 18, 19, 20.
In the case of RRIRPRPPRLPRPRPRPPIHPRP, the “shrunken log2 fold change” value is reported as -0.039. In the case of RRIRDRPPRLPRPRPRPCHYPRP, the “shrunken log2 fold change” value is reported as -0.639. In the case of RRIRIRPPRLPRPRPRPLFTPRP, the “shrunken log2 fold change” value is reported as -0.374. RRIRLRPPRLPRPRPRPLHVPRP was tested, and the “shrunken log2 fold change” value was -0.173. For RRIRTRPPRLPRPRPRPHKTPRP, the “shrunken log2 fold change” value was -0.035. For RRIRFRPPRLPRPRPRPHCYPRP, the “shrunken log2 fold change” value was 0.149. With RRIRHRPPRLPRPRPRPDMAPRP the “shrunken log2 fold change” value was -0.0459. For RRIRPRPPRLPRPRPRPGLEPRP, the “shrunken log2 fold change” value was 0.195. RRIRKRPPRLPRPRPRPTFAPRP was tested, and the “shrunken log2 fold change” value was 0.673. With RRIRNRPPRLPRPRPRPLWFPRP the “shrunken log2 fold change” value was 0.0185. With RRIRCRPPRLPRPRPRPPYLPRP the “shrunken log2 fold change” value was -0.87. With RRIRWRPPRLPRPRPRPLFKPRP the “shrunken log2 fold change” value was -0.242. For RRIRVRPPRLPRPRPRPWMNPRP, the “shrunken log2 fold change” value was -0.00133. RRIRIRPPRLPRPRPRPLFWPRP was tested, and the “shrunken log2 fold change” value was -0.145. For RRIRCRPPRLPRPRPRPSGPPRP, the “shrunken log2 fold change” value was 0.124. With RRIRQRPPRLPRPRPRPFTCPRP the “shrunken log2 fold change” value was -0.158. RRIRCRPPRLPRPRPRPACHPRP was tested, and the “shrunken log2 fold change” value was -0.315. RRIRVRPPRLPRPRPRPVHYPRP was tested, and the “shrunken log2 fold change” value was -0.0353. With RRIRMRPPRLPRPRPRPPEWPRP the “shrunken log2 fold change” value was 0.5. In the case of RRIRPRPPRLPRPRPRPPVGPRP, the “shrunken log2 fold change” value is reported as 0.557. For RRIRIRPPRLPRPRPRPRRKPRP, the “shrunken log2 fold change” value was 0.0881. For RRIRPRPPRLPRPRPRPYGSPRP, the “shrunken log2 fold change” value was -0.0157. In the case of RRIRFRPPRLPRPRPRPNDWPRP, the “shrunken log2 fold change” value is reported as -0.271. For RRIRCRPPRLPRPRPRPGIYPRP, the “shrunken log2 fold change” value was -0.0438. With RRIRGRPPRLPRPRPRPEFIPRP the “shrunken log2 fold change” value was 0.131. In the case of RRIRLRPPRLPRPRPRPEWPPRP, the “shrunken log2 fold change” value is reported as 0.549. RRIRRRPPRLPRPRPRPEMAPRP was tested, and the “shrunken log2 fold change” value was 0.145. For RRIRFRPPRLPRPRPRPSRQPRP, the “shrunken log2 fold change” value was -0.0117. In the case of RRIRCRPPRLPRPRPRPHNTPRP, the “shrunken log2 fold change” value is reported as -0.246. For RRIRMRPPRLPRPRPRPGICPRP, the “shrunken log2 fold change” value was 0.507. In the case of RRIRNRPPRLPRPRPRPCLRPRP, the “shrunken log2 fold change” value is reported as -0.0159. For RRIRIRPPRLPRPRPRPYGPPRP, the “shrunken log2 fold change” value was -1.06. For RRIRMRPPRLPRPRPRPSFRPRP, the “shrunken log2 fold change” value was 0.142. With RRIRIRPPRLPRPRPRPGMWPRP the “shrunken log2 fold change” value was 0.0422. With RRIRMRPPRLPRPRPRPPWMPRP the “shrunken log2 fold change” value was 0.537. In the case of RRIRHRPPRLPRPRPRPSGDPRP, the “shrunken log2 fold change” value is reported as -0.107. With RRIRARPPRLPRPRPRPLYSPRP the “shrunken log2 fold change” value was -0.122. With RRIRIRPPRLPRPRPRPPPGPRP the “shrunken log2 fold change” value was 0.685. For RRIRGRPPRLPRPRPRPITTPRP, the “shrunken log2 fold change” value was 0.407. With RRIRVRPPRLPRPRPRPDGTPRP the “shrunken log2 fold change” value was -0.161. In the case of RRIRERPPRLPRPRPRPINWPRP, the “shrunken log2 fold change” value is reported as -0.169. For RRIRERPPRLPRPRPRPQCVPRP, the “shrunken log2 fold change” value was -0.0437. For RRIRTRPPRLPRPRPRPTFIPRP, the “shrunken log2 fold change” value was -0.39. In the case of RRIRVRPPRLPRPRPRPHVMPRP, the “shrunken log2 fold change” value is reported as -0.526. With RRIRLRPPRLPRPRPRPPCQPRP the “shrunken log2 fold change” value was 0.062. In the case of RRIRIRPPRLPRPRPRPARWPRP, the “shrunken log2 fold change” value is reported as 0.412. In the case of RRIRVRPPRLPRPRPRPRAAPRP, the “shrunken log2 fold change” value is reported as 0.425. With RRIRERPPRLPRPRPRPSTWPRP the “shrunken log2 fold change” value was -0.651. In the case of RRIRDRPPRLPRPRPRPWYRPRP, the “shrunken log2 fold change” value is reported as -0.0745. With RRIRQRPPRLPRPRPRPISEPRP the “shrunken log2 fold change” value was 0.0446. In the case of RRIRLRPPRLPRPRPRPAKSPRP, the “shrunken log2 fold change” value is reported as -0.0164. In the case of RRIRRRPPRLPRPRPRPQRSPRP, the “shrunken log2 fold change” value is reported as 0.302. With RRIRQRPPRLPRPRPRPQRSPRP the “shrunken log2 fold change” value was 0.0623. In the case of RRIRARPPRLPRPRPRPGPKPRP, the “shrunken log2 fold change” value is reported as 0.421. With RRIRIRPPRLPRPRPRPDCIPRP the “shrunken log2 fold change” value was 0.0653. In the case of RRIRGRPPRLPRPRPRPRWFPRP, the “shrunken log2 fold change” value is reported as 0.355. RRIRMRPPRLPRPRPRPVMKPRP was tested, and the “shrunken log2 fold change” value was 0.0713. For RRIRLRPPRLPRPRPRPVYNPRP, the “shrunken log2 fold change” value was 0.41. With RRIRKRPPRLPRPRPRPQLYPRP the “shrunken log2 fold change” value was 0.0948. With RRIRPRPPRLPRPRPRPILIPRP the “shrunken log2 fold change” value was -0.106. With RRIRKRPPRLPRPRPRPVSVPRP the “shrunken log2 fold change” value was -0.0496. In the case of RRIRLRPPRLPRPRPRPLVDPRP, the “shrunken log2 fold change” value is reported as -0.0956. RRIRCRPPRLPRPRPRPSTEPRP was tested, and the “shrunken log2 fold change” value was -0.174. With RRIRYRPPRLPRPRPRPRDGPRP the “shrunken log2 fold change” value was -0.0431. With RRIRARPPRLPRPRPRPADKPRP the “shrunken log2 fold change” value was 0.197. RRIRPRPPRLPRPRPRPAEKPRP was tested, and the “shrunken log2 fold change” value was 0.0387. In the case of RRIRGRPPRLPRPRPRPVPKPRP, the “shrunken log2 fold change” value is reported as 0.92. For RRIRTRPPRLPRPRPRPHPVPRP, the “shrunken log2 fold change” value was 0.1. RRIRQRPPRLPRPRPRPCNKPRP was tested, and the “shrunken log2 fold change” value was 0.0281. For RRIRIRPPRLPRPRPRPVAEPRP, the “shrunken log2 fold change” value was 0.243. In the case of RRIRWRPPRLPRPRPRPSCLPRP, the “shrunken log2 fold change” value is reported as -0.0337. RRIRNRPPRLPRPRPRPGSQPRP was tested, and the “shrunken log2 fold change” value was 0.0302. With RRIRERPPRLPRPRPRPGRRPRP the “shrunken log2 fold change” value was 0.0607. RRIRERPPRLPRPRPRPKCRPRP was tested, and the “shrunken log2 fold change” value was -0.0625. With RRIRNRPPRLPRPRPRPMRNPRP the “shrunken log2 fold change” value was 0.115. With RRIRMRPPRLPRPRPRPNDDPRP the “shrunken log2 fold change” value was 0.196. For RRIRPRPPRLPRPRPRPCANPRP, the “shrunken log2 fold change” value was 0.0366. In the case of RRIRQRPPRLPRPRPRPFEMPRP, the “shrunken log2 fold change” value is reported as -0.0512. RRIRHRPPRLPRPRPRPACAPRP was tested, and the “shrunken log2 fold change” value was 0.436. RRIRQRPPRLPRPRPRPDDTPRP was tested, and the “shrunken log2 fold change” value was 0.00151. RRIRHRPPRLPRPRPRPKNSPRP was tested, and the “shrunken log2 fold change” value was -0.487. RRIRERPPRLPRPRPRPMFSPRP was tested, and the “shrunken log2 fold change” value was -0.104. With RRIRDRPPRLPRPRPRPGRVPRP the “shrunken log2 fold change” value was 0.166. In the case of RRIRKRPPRLPRPRPRPGYIPRP, the “shrunken log2 fold change” value is reported as 0.0313. In the case of RRIRSRPPRLPRPRPRPLYKPRP, the “shrunken log2 fold change” value is reported as -0.486. In the case of RRIRPRPPRLPRPRPRPHYCPRP, the “shrunken log2 fold change” value is reported as -0.997. With RRIRRRPPRLPRPRPRPEFCPRP the “shrunken log2 fold change” value was 0.579. For RRIRVRPPRLPRPRPRPCLLPRP, the “shrunken log2 fold change” value was -0.072. For RRIRLRPPRLPRPRPRPWDKPRP, the “shrunken log2 fold change” value was -0.0731. RRIRRRPPRLPRPRPRPACIPRP was tested, and the “shrunken log2 fold change” value was 0.542. In the case of RRIRSRPPRLPRPRPRPFIVPRP, the “shrunken log2 fold change” value is reported as -0.477. For RRIRMRPPRLPRPRPRPHKGPRP, the “shrunken log2 fold change” value was 0.034. In the case of RRIRFRPPRLPRPRPRPYRHPRP, the “shrunken log2 fold change” value is reported as -1.08. In the case of RRIRCRPPRLPRPRPRPSQDPRP, the “shrunken log2 fold change” value is reported as 0.0757. RRIRCRPPRLPRPRPRPDMAPRP was tested, and the “shrunken log2 fold change” value was -0.145. With RRIRMRPPRLPRPRPRPMYCPRP the “shrunken log2 fold change” value was -0.0254. RRIRYRPPRLPRPRPRPPAAPRP was tested, and the “shrunken log2 fold change” value was 0.454. With RRIRARPPRLPRPRPRPIIDPRP the “shrunken log2 fold change” value was 0.216. For RRIRLRPPRLPRPRPRPHDVPRP, the “shrunken log2 fold change” value was 0.0205. RRIRRRPPRLPRPRPRPILQPRP was tested, and the “shrunken log2 fold change” value was 1.83. RRIRFRPPRLPRPRPRPSKYPRP was tested, and the “shrunken log2 fold change” value was -0.868. In the case of RRIRWRPPRLPRPRPRPRDHPRP, the “shrunken log2 fold change” value is reported as 0.526. In the case of RRIRHRPPRLPRPRPRPIWGPRP, the “shrunken log2 fold change” value is reported as 0.226. For RRIRWRPPRLPRPRPRPFPHPRP, the “shrunken log2 fold change” value was 0.29. In the case of RRIRYRPPRLPRPRPRPQNQPRP, the “shrunken log2 fold change” value is reported as -0.562. For RRIRQRPPRLPRPRPRPTHPPRP, the “shrunken log2 fold change” value was 0.374. RRIRMRPPRLPRPRPRPDWQPRP was tested, and the “shrunken log2 fold change” value was 0.198. With RRIRHRPPRLPRPRPRPGSGPRP the “shrunken log2 fold change” value was 0.0563. With RRIRLRPPRLPRPRPRPRNDPRP the “shrunken log2 fold change” value was -0.142.
